According to the supplement of paper PMC9112550, “Optimization of the antimicrobial peptide Bac7 by deep mutational scanning” (BMC Biology, 2022):

Each sequence was assayed on Escherichia coli TOP10 (assay: shrunken log2 fold change of peptide-encoding DNA abundance (4.5 h post-induction vs induction); higher = less antimicrobial activity (less host growth inhibition)). Conditions: time post-induction: 4.5 h; library: site-saturation at positions 5, 18, 19, 20.
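Also: peptides expressed intracellularly from a pBAD plasmid library in pooled LB shake-flask culture, induced with 0.3% L-arabinose, DNA abundance read by NGS, three biological replicates, DESeq2 with apeglm shrinkage.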

| Sequence | shrunken log2 fold change |
| --- | --- |
| RRIRVRPPRLPRPRPRPKKVPRP | -0.11 |
| RRIRVRPPRLPRPRPRPKLFPRP | 0.0793 |
| RRIRVRPPRLPRPRPRPKMKPRP | 0.839 |
| RRIRVRPPRLPRPRPRPKNCPRP | -0.183 |
| RRIRVRPPRLPRPRPRPKPNPRP | 0.275 |
| RRIRVRPPRLPRPRPRPKQKPRP | -0.0521 |
| RRIRVRPPRLPRPRPRPKSKPRP | -0.117 |
| RRIRVRPPRLPRPRPRPKSTPRP | -0.158 |
| RRIRVRPPRLPRPRPRPKTYPRP | 0.325 |
| RRIRVRPPRLPRPRPRPKVYPRP | -0.433 |
| RRIRVRPPRLPRPRPRPLAEPRP | 0.433 |
| RRIRVRPPRLPRPRPRPLAHPRP | 0.00485 |
| RRIRVRPPRLPRPRPRPLASPRP | -0.214 |
| RRIRVRPPRLPRPRPRPLCAPRP | 0.17 |
| RRIRVRPPRLPRPRPRPLDCPRP | -0.0035 |
| RRIRVRPPRLPRPRPRPLDFPRP | -0.147 |
| RRIRVRPPRLPRPRPRPLFGPRP | -0.104 |
| RRIRVRPPRLPRPRPRPLFHPRP | -0.311 |
| RRIRVRPPRLPRPRPRPLFLPRP | -0.417 |
| RRIRVRPPRLPRPRPRPLHNPRP | -0.143 |
| RRIRVRPPRLPRPRPRPLICPRP | -0.0443 |
| RRIRVRPPRLPRPRPRPLIIPRP | -0.445 |
| RRIRVRPPRLPRPRPRPLITPRP | -0.439 |
| RRIRVRPPRLPRPRPRPLKQPRP | -0.0521 |
| RRIRVRPPRLPRPRPRPLLIPRP | -0.304 |

| Sequence | shrunken log2 fold change |
| --- | --- |
| RRIRVRPPRLPRPRPRPLNAPRP | -0.331 |
| RRIRVRPPRLPRPRPRPLNDPRP | 0.171 |
| RRIRVRPPRLPRPRPRPLNYPRP | -0.621 |
| RRIRVRPPRLPRPRPRPLPDPRP | -0.0431 |
| RRIRVRPPRLPRPRPRPLRKPRP | 0.317 |
| RRIRVRPPRLPRPRPRPLSEPRP | 0.0246 |
| RRIRVRPPRLPRPRPRPLSVPRP | -0.0714 |
| RRIRVRPPRLPRPRPRPLTYPRP | -0.356 |
| RRIRVRPPRLPRPRPRPLVLPRP | -0.122 |
| RRIRVRPPRLPRPRPRPLVVPRP | -0.21 |
| RRIRVRPPRLPRPRPRPLVYPRP | -0.193 |
| RRIRVRPPRLPRPRPRPLWIPRP | -0.189 |
| RRIRVRPPRLPRPRPRPLWSPRP | -0.0257 |
| RRIRVRPPRLPRPRPRPLYDPRP | -0.257 |
| RRIRVRPPRLPRPRPRPMAMPRP | -0.00688 |
| RRIRVRPPRLPRPRPRPMCDPRP | -0.0462 |
| RRIRVRPPRLPRPRPRPMCMPRP | 0.0119 |
| RRIRVRPPRLPRPRPRPMETPRP | -0.074 |
| RRIRVRPPRLPRPRPRPMFTPRP | -0.0798 |
| RRIRVRPPRLPRPRPRPMGHPRP | 0.0767 |
| RRIRVRPPRLPRPRPRPMGKPRP | -0.0406 |
| RRIRVRPPRLPRPRPRPMGMPRP | 0.0727 |
| RRIRVRPPRLPRPRPRPMHIPRP | -0.231 |
| RRIRVRPPRLPRPRPRPMIKPRP | -0.156 |
| RRIRVRPPRLPRPRPRPMKEPRP | -0.04 |

| Sequence | shrunken log2 fold change |
| --- | --- |
| RRIRVRPPRLPRPRPRPMKLPRP | -0.0169 |
| RRIRVRPPRLPRPRPRPMKQPRP | -0.0165 |
| RRIRVRPPRLPRPRPRPMLSPRP | -0.0455 |
| RRIRVRPPRLPRPRPRPMMQPRP | 0.0134 |
| RRIRVRPPRLPRPRPRPMMWPRP | -0.368 |
| RRIRVRPPRLPRPRPRPMNEPRP | -0.111 |
| RRIRVRPPRLPRPRPRPMPFPRP | -0.259 |
| RRIRVRPPRLPRPRPRPMPMPRP | 0.0529 |
| RRIRVRPPRLPRPRPRPMQFPRP | 0.0422 |
| RRIRVRPPRLPRPRPRPMQGPRP | -0.0882 |
| RRIRVRPPRLPRPRPRPMQHPRP | 0.0443 |
| RRIRVRPPRLPRPRPRPMQVPRP | 0.121 |
| RRIRVRPPRLPRPRPRPMRMPRP | -0.00559 |
| RRIRVRPPRLPRPRPRPMSMPRP | -0.323 |
| RRIRVRPPRLPRPRPRPMSNPRP | 0.0709 |
| RRIRVRPPRLPRPRPRPMTVPRP | 0.116 |
| RRIRVRPPRLPRPRPRPMVVPRP | -0.0329 |
| RRIRVRPPRLPRPRPRPMWVPRP | 0.0736 |
| RRIRVRPPRLPRPRPRPMYIPRP | -0.0844 |
| RRIRVRPPRLPRPRPRPMYKPRP | -0.608 |
| RRIRVRPPRLPRPRPRPMYSPRP | -0.242 |
| RRIRVRPPRLPRPRPRPNCPPRP | -0.0515 |
| RRIRVRPPRLPRPRPRPNDCPRP | -0.2 |
| RRIRVRPPRLPRPRPRPNEDPRP | -0.168 |
| RRIRVRPPRLPRPRPRPNEKPRP | -0.0575 |
